{"source": "paper PMC9015148", "about": "(2022)", "binders": {"B1": {"name": "D25 Fab (Fab, V domains shown)", "VH": "QVQLVQSGAEVKKPGSSVMVSCQASGGPLRNYIINWLRQAPGQGPEWMGGIIPVLGTVHYAPKFQGRVTITADESTDTAYIHLISLRSEDTAMYYCATETALVVSTTYLPHYFDNWGQGTLVTVSS", "VL": "DIQMTQSPSSLSAAVGDRVTITCQASQDIVNYLNWYQQKPGKAPKLLIYVASNLETGVPSRFSGSGSGTDFSLTISSLQPEDVATYYCQQYDNLPLTFGGGTKVEIK"}}, "key": {"RSV_FixBB": {"molecular_target": "RSV_FixBB (UniProt P0AFA2)", "test": "SPR"}, "Surf_03": {"molecular_target": "Surf_03 (UniProt P0AFA2)", "test": "SPR"}}, "data": [{"binder": "B1", "values": [{"measurement": "Kd", "setting": "RSV_FixBB", "result": 99, "unit": "nM"}, {"measurement": "Kd", "setting": "Surf_03", "result": 360, "unit": "nM"}]}]}
